The domain aggregation screens of Martell et al. (2025)

Test: soluble fraction after stress (log2 fold change); higher = more stays soluble; pooled small domains, quantitative proteomics
Conditions: stress: pH 4
How it was run: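 Custom libraries of small protein domains were pooled and exposed to pH 4. High-throughput quantitative proteomics then measured the log2 fold change in the amount of each domain still soluble, with higher values meaning more stayed soluble. This soluble-fraction fold change stands for aggregation propensity.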

Sequence | soluble fraction (log2)
HMLKPIHKDWSPNGDAKEILLKAGITEEFIQKELPEFIMYWSERNEESDIWNSKFIAHIRRRWGRFS | -1.23
HMLKPVVLLGARGLTDAVEKEVERALDEHGLIKIHVPSDDREERDEIYTTLADKLNAARIQAIGKMLVLW | -0.00783
HMLKSGSAVAQARDVILEKGVPVHINEILDALGKGDTREAKASLTSSLAAYVRRGEIFTRPAPNTFGLVEL | -0.378
HMLKTADAIASVLLTRIQAGEFSAGRLPAERALSEAFSTTRITLREALGKLEAQGMIYRELRRGWFIA | -1.3
HMLLFNPGEVLKGFVLQSGTNNRVLLQIGDSRVIADTQTPLKAGEQLVLRVEETGPKTILQILG | 0.0206
HMLLGDYIQKLRNQRGLSQQEFADKLGIGRSTLANYEQNKRSPDYETLIEISKFFNVSIDELLGV | -0.342
HMLLLASTPAEQTIIQLLAEGWRDGDQLQQRSHLSAADFSTALTMLEVNGSIKPLGANHWALTH | -0.185
HMLLPANLTKSQRNIAERVARGQSNLEIAADLNITERTVKAHLTSIYEKTKTGNRLNLALLINLG | -0.17
HMLLPGEELRVMIIQEGKEYGQGVGYLDDGTMVVVEDGQRALNRTENVVVTKVLQTTAGRMIFAK | -0.975
HMLLQENRKLHSKLEELQLISRAKAVLIEYLKLTEPQAHRYIEKQAMDLGLTRPQVALNILKTYE | 0.21
HMLLQTAVISTDIVNMRAEPTTNSSVIRKLTKGSDITINQEKDGWYKISDDQGNSGWIVTWAAKPT | -0.0639
HMLMDVRVPDIIGVEINQAKEILTASSLLIGKITYVSLPEIEKDLVIETSVLAGRRVSAGTVIDITVNKE | -0.87
HMLMKPQKTRDVLRYLKSIGWVRLRGGQGSHEIWGLPDGSIRAVIPAGHREISAGVLMQLKRAGVDVPTQW | -0.0803
HMLMLTPGQIAQTLDVSTATVRRWSARYARHLSPNTPGKKRSYTVDDLAVLTRVRDLSATGTPLAQIDQAL | 0.151
HMLMLTPGQVSNSLNVSTATVRRWSARFARHLSPQPPNRKRSYTPDDLATLARVRDLSASGTSLAQIDIAL | -0.29
HMLMRSPDFLIGWFQNLVAKRETFNDQVQAKNLIEAGKQHIQGEDFDRLLEVNRRLFSLLPQREQE | -1.27
HMLNAPFGFRIEDDTLIPIPEEAKVVRQIFRYYLQGMGFGKIAQELNGQDVPGKPWGKERIKYILSNEKYI | -0.0934
HMLNERQKKIIKILKDNKNWMTGKELSEFLNVSDRTIRSDIEYINRYNNALIESNVKNGYHLNFE | -0.0338
HMLNIVTIFEEQFGRPLSPIELNIIKDWKESDYSDEMIVKALKEAVKSQVLNFRYVEGILNNWAKNG | -1.08
HMLNLNEAEKSIYVLIKKNESNNLNKVKEDSNLSNKAWDKGIKNLVKNNLVKVVKSNEGLFIQLV | 0.196
HMLNLNILTDKEKFIAKLISRGLSDSLIAKELYISISTVRSHVNSIYGKTNIKNRSHLASSFLYFELGNLL | -0.0771
HMLNPMILLTKGGENIRLDKFLSSHLSDLSRTQIQKMVKEGLVLVNGEPSKVGLKLDGSETIQYTLPK | 0.254
HMLNSISIKTNKKIDFLEKNEHLVNFVYEKETMEHIYNLSYENKKDLQELQNKLSDIEGIIKINTDL | -2.18

Sequence | soluble fraction (log2)
HMLPDVSITGHIFIRSGSRLNRIFVGESTYHVGDMLDGKWLIESINSDSLELRSGTQTTELPL | -0.066
HMLPDYLIELKKKADSGDAVSQNDIGNIYLYGLPRVNIYPDEKNIGIGIDYLYKAAWQDQVNAMTTI | -0.397
HMLPELQPGQTFSARIQQALPDNTYRALVAGKQLTLQLPEGAKAGDELELVVLDRSARVIIARQVD | 0.336
HMLPGERFKVKIAQAGKEKKQGIGYLNDGTMVVIENGIEKVGEEVEAVVIKVIQSSAGKIIFSEVAK | 0.0394
HMLPGKEIPLPEFLREAFARNEPALENFQNLAPSYRRQYILWITSAKTPETVQKRISESIGLLKENRKLGM | -0.0786
HMLPGLGPIERAQFMLQAIPGISPTRSAALIDKFGSIAGIAQASIKDIQTIEGIGKKTATTLYEVLNAG | -0.223
HMLPISGDDRDALDMAALILKQYDSLPILKEFANVVTKLQTVLDGVVSNSIEARRQMIQFEE | -0.48
HMLPITPGQKYKFVVKSAEEAAAIIRDKLGEMAQVISVRQVEGEGLARFLKSPKLEIIAQVPVA | -0.349
HMLPLGSNEYETAVIKHLASGVQDADEIQRLTGIDQTSLNTALTMLELAGTIRPLGNNHWTL | 0.22
HMLPLHFIEIVSLKKIDTLTKRKELINYAFSKNEKTYIYKLAFKKKSELDNLYKEINLFNEIINIDIRHS | -0.943
HMLPLPRFASLDSSEANLRAGPGKDYPILWVYQRKGLPVEIIQEFDTWRRIRDRDGTVGWVQQNLL | -0.568
HMLPNIKSEMEILGDNAKARLEAAELWSKKYLSNEAYDTMSKLATTADGVKAIEEIMNITKS | -0.274
HMLPSELLAQQRIVVQPGHNLWRIARATYGRGARYTVIYQANREQIADPNRIFPGQVFALPAA | -0.227
HMLPSMENWLGELSFWQTPWWERRDFSTFDNIAQSKEELDEFMSRDDNGAILERMQDPINTIEAE | -0.682
HMLQGKVSFFNDEKGYGFIKDNNSKDSYFVHINKVEGEIAEGDKVTFELEKGPKGLVAANVKR | -0.145
HMLQIGDEEFIENIVKQVIDENQKAVDDYKKGKEKVMAFLIGQVMKKTKGKVNSEIVEKTIKKL | -0.565
HMLQKEVHQQIQQALRALPYHQRTAIVLYYYEGMSVKEIAQATGSMQGTVQSRLFFARKKLRPILESILKK | -2.39
HMLQQNRAVEAEQLARKGLSYAQSNIQQAALWRLVAEATEQQGKVDAALNAKNKAMQLEMAG | 0.353
HMLRTLSTSEFAEAIGISESSARRLADSGDLRIRRTKGGHRKIPAEEAIRYAREIQATVVRPDLLGLST | -0.151
HMLRVVSTRQAFDIVRGWADAHPQDPEHNKTLDELEELAKKEVWDDWSRTNEIAERLNALLVSIGANVRTA | -0.314
HMLSDEEKMAALNEQARQRGFTISPGVLPYLITHYQRDMHSLSMILDALDRYSLQTKRTITLPLLHDLLQQ | -0.228
HMLSKEFRFFTYLLESYAQHKNTTAGAVLKTLDEKGLTDFVYKMYDLYHVEAIENAYMDLDSLIATGKPA | -0.989
HMLSKGDRVSWDTPQGRTQGEVVEKKTKDFEHDGQKFTASDDDPAFIVKSEKSGAEAAHKGSALNK | -0.0554

Sequence | soluble fraction (log2)
HMLSLGIMEADMLKTGKHTISGISKATPEQRQKIDSDIEELKKKYPEKNITSKVENDNLIVESGVTAP | 0.0639
HMLSNKIEQLRKEKGYTFAKLSELSGISTGRLSDLATGKRNNPTMDTLIKLADALDVTLDELVGR | -0.328
HMLSNYIGMTLGEAKRNLGQGVNITVNGPNNDNAEVTGQDPTSGSSFDKSKDTITLTT | 0.225
HMLSPAQSLLLRTAARRPDGRVIPPDTLRGGARVKVLTSLLQRGWIEPVDGGHVLTDAGYAAIG | ≥ 0.43
HMLSTNDYNENKNKLIKDFEIKFIIKHLKLNKGNVAATARSINFHPVSLRQKIAKLGIDVDEVMAG | -0.341
HMLSTQEYIKKNIENGSWKVGEKIPSENNLTEILGVSRASIRVAIQQFIALDVLNSIHGKGTFVKTNNIMG | 0.207
HMLTALTDREEEILVLLAHNLSNKEIAKRLNLSVNTVRNHTSHIYEKLNVTSRRKAITLAQSLHLLPP | -0.067
HMLTAPMPGIVRQVNVDTGQKVRKGQPLMVLEAMKMEHQIIAPQAGKIEAIHYNEGDRVEMGSVLISIF | -0.538
HMLTAPMPGIVTEILVKEGQRVRSGQPLMILEAMKMEHQVTAPKSGQIEKIYFSEGEKVDMGSDLLSIS | -0.0146
HMLTEEVEISLMDMTKPTQPATIKTTATIQKGATTVMPKQIKMPEGYEFYGNYKMDQPFELTMTFVVKKI | -0.0427
HMLTGESDNVEKSINKLGTENLALADQTNMGFKGTFINSGHGMAIVVKTGMQTELGKIASMIQIA | 0.22
HMLTGISALKPTEAFPDEIFYEIFEIEDNIERTQYIESLRNTARQLKRVTEFNNLYKSFVLDYAQRQKQ | -0.375
HMLTKAEEQVMDYLWKLEKAFVKDILDEFPEPKPAYTTVSTMVRILEKKGMVGYTAYGKNHQYYPL | -1.18
HMLTKSELVFDTLKKRIIDGELEPGTELVISRISEEFNVSTIPVREAIKTLASEGLVEMEPHKSAKVAE | -0.0422
HMLTKSVLGNQIKVLRLEKGLSQEEFGAPVDLSRSAVSQIESGQMYPSLESIGKIVKYYSTSWDNLVG | -0.162
HMLTLDEKRRLQIMRVQVALTSLGLYNGRVDGVLNAETKLGLEFFQDLKGLPKSGTMTTPTLNALGVPA | -0.347
HMLTLSGPEHAVVRALWPEPELDFDVLIRKTGLPSAQLMTLAMQLEMKKIIRRLPGRRLALMDDIRR | -0.716
HMLTRSTVNVETGTAAIGLGKLYGVYDMSRKGLKYSFSVDSDAMTKVMEMLLPLGIKSLTVEPPS | -0.658
HMLTTADLMMVHANSNKAIDYIVTDDNTKLTVDEPVTAKWITTADSIYRAVAYYNKVGDGKAQIVSVGN | 0.0559
HMLTYPEHVRLRMIELRKTRSLSQSEFGTYLGLSYQTISSLELGRHEWSLAHIQTALLRFELPPNYF | -1.82
HMLVATFGPTTGWEGREIIWDVDRFILVGHGAVPAAGVLDYDRRGQLIWAQPELRAWVVEVDRWETG | -1.61
HMLVMTDNVIKAINDLLNYEAAAGIKKKQRYTAYQIYKELSEQGVYHGSRRRMEEVVSKLRVERNQI | -0.249
HMLVPWKSANLFKLVEPNFRLAERKIPMLPSADREKLQEIMSDMKDAIVDNDKMALMKLDEELTDFLFDFV | -1.03
